Positions count from the first letter of the chain named. In names and notes the source's numbering stands. Each block holds one binder with its values, some of them ahead of it.
How the values were obtained:
[1] = biological target: T1, Biotinylated human TIM3-Fc fusion from R&D systems (human, UniProt Q8TDQ0 22-200, biotinylated (site not stated)); test: Ag Binding column; TIM3-Fc ELISA
T1 construct: Bought reagent; also called CD366; not shown: Fc part of the bought fusion
T1 sequence (looked up): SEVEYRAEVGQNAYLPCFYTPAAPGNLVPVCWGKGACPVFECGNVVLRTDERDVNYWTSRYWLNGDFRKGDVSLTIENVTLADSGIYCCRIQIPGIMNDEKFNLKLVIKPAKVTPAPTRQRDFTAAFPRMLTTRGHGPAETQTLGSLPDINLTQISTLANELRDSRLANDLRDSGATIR

human PD1 antigen = biological target: T2, human PD1 antigen (human, UniProt Q15116 25-167, limits assumed); test: Ag Binding column; PD1 SPR
T2 construct: Injected as analyte (100 nM-0.4 nM) in the ProteOn SPR assay; construct not described; also called CD279
T2 sequence (Q15116 25-167 limits assumed): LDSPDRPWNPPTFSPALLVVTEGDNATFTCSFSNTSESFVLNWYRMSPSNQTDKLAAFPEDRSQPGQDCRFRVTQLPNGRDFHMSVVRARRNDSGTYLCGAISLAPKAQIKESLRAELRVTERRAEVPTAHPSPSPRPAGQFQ

B3: S88D variant of PD1B244 (antibody, V domains shown)
VH: QVQLVQSGAEVKKPGSSVKVSCKASGGTFSSYAISWVRQAPGQGLEWMGGIIPIFDTANYAQKFQGRVTITADESTSTAYMELSSLRDEDTAVYYCARPGLAAAYDTGSLDYWGQGTLVTVSS
VL: EIVLTQSPATLSLSPGERATLSCRASQSVRSYLAWYQQKPGQAPRLLIYDASNRATGIPARFSGSGSGTDFTLTISSLEPEDFAVYYCQQRNYWPLTFGQGTKVEIK
notes: Kabat position 84; also called PD1 S88D variant; PD1H170 S88D
binding result (human PD1 antigen): binds

B4: S75D variant of PD1B244 (antibody, V domains shown)
VH: B3 VH with S75D, D88S
VL: B3 VL
notes: Kabat position 74; also called PD1 S75D variant; PD1H170 S75D
binding result (human PD1 antigen): binds

B5: N84D variant of TIMB337 (antibody, V domains shown)
VH: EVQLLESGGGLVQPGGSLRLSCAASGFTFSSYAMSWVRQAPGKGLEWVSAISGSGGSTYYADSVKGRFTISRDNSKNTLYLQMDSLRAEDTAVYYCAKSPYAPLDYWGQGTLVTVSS
VL: B3 VL with R30N, S31D, R91G, N92G, Y93H, W94A, L96I
notes: Kabat position 82a; also called TIM3 N84D variant; TM3H24 N84D
binding result [1]: binds

Now from value to binder:

binding result [1]: binds
B1: A88D variant of TIMB337 (antibody, V domains shown)
VH: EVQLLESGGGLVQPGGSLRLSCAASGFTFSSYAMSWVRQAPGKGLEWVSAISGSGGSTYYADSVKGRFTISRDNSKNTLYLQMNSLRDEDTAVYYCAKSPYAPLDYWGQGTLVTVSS
VL: B3 VL with R30N, S31D, R91G, N92G, Y93H, W94A, L96I
notes: Kabat position 84; also called TIM3 A88D variant; TM3H24 A88D

binding result [1]: binds
B2: S75D variant of TIMB337 (antibody, V domains shown)
VH: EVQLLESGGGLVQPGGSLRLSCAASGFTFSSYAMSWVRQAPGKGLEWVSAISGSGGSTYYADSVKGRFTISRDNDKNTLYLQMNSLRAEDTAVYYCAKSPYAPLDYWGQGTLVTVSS
VL: B3 VL with R30N, S31D, R91G, N92G, Y93H, W94A, L96I
notes: Kabat position 74; also called TIM3 S75D variant; TM3H24 S75D

binding result (human PD1 antigen): binds
B6: S84D variant of PD1B244 (antibody, V domains shown)
VH: B3 VH with S84D, D88S
VL: B3 VL
notes: Kabat position 82a; also called PD1 S84D variant; PD1H170 S84D
